In IntAct's records for PubMed 18555782:

B1: Heat shock protein homolog SSE1 (Saccharomyces cerevisiae), P32589 (parent)
chain: MSTPFGLDLGNNNSVLAVARNRGIDIVVNEVSNRSTPSVVGFGPKNRYLGETGKNKQTSNIKNTVANLKRIIGLDYHHPDFEQESKHFTSKLVELDDKKTGAEVRFAGEKHVFSATQLAAMFIDKVKDTVKQDTKANITDVCIAVPPWYTEEQRYNIADAARIAGLNPVRIVNDVTAAGVSYGIFKTDLPEGEEKPRIVAFVDIGHSSYTCSIMAFKKGQLKVLGTACDKHFGGRDFDLAITEHFADEFKTKYKIDIRENPKAYNRILTAAEKLKKVLSANTNAPFSVESVMNDVDVSSQLSREELEELVKPLLERVTEPVTKALAQAKLSAEEVDFVEIIGGTTRIPTLKQSISEAFGKPLSTTLNQDEAIAKGAAFICAIHSPTLRVRPFKFEDIHPYSVSYSWDKQVEDEDHMEVFPAGSSFPSTKLITLNRTGDFSMAASYTDITQLPPNTPEQIANWEITGVQLPEGQDSVPVKLKLRCDPSGLHTIEEAYTIEDIEVEEPIPLPEDAPEDAEQEFKKVTKTVKKDDLTIVAHTFGLDAKKLNELIEKENEMLAQDKLVAETEDRKNTLEEYIYTLRGKLEEEYAPFASDAEKTKLQGMLNKAEEWLYDEGFDSIKAKYIAKYEELASLGNIIRGRYLAKEEEKKQAIRSKQEASQMAAMAEKLAAQRKAEAEKKEEKKDTEGDVDMD

Variants of: B1
Details: with hsp71_yeast SSA1, P10591
Sequence of hsp71_yeast SSA1, P10591 (P10591 whole entry): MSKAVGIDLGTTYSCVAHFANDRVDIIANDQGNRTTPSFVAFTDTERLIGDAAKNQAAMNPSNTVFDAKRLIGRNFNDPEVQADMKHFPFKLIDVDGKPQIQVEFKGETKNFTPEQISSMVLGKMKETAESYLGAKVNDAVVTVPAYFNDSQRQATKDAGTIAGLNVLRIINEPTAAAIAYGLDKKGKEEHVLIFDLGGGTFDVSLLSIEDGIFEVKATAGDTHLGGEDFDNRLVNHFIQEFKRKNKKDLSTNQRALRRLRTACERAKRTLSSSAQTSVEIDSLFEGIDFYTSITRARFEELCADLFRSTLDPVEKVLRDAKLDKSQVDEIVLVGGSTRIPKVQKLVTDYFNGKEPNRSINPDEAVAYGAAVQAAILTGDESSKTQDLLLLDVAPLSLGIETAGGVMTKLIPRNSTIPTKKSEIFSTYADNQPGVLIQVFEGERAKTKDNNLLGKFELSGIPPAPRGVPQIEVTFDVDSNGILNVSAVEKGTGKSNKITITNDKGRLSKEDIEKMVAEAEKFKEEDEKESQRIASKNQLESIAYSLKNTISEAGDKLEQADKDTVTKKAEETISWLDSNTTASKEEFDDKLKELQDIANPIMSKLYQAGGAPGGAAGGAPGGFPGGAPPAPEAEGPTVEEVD

Effect of a mutation on the interaction, decreasing interaction:
D396A
L489A;H490A
E554A;M557S;L558S
T365V;N367S
N572Y;E575A
F392A;F394A
A280T;N281A
